Experimental data as given in paper PMC10540216, “Activity Guided Azide-methyllysine Photo-trapping for Substrate Profiling of Lysine Demethylases” (Journal of the American Chemical Society, 2023).

B1: RBMX_HUMAN (protein, UniProt P38159 1-391, looked up)
RNA-binding motif protein, X …: MVEADRPGKLFIGGLNTETNEKALEAVFGKYGRIVEVLLMKDRETNKSRGFAFVTFESPADAKDAARDMNGKSLDGKAIKVEQATKPSFESGRRGPPPPPRSRGPPRGLRGGRGGSGGTRGPPSRGGHMDDGGYSMNFNMSSSRGPLPVKRGPPPRSGGPPPKRSAPSGPVRSSSGMGGRAPVSRGRDSYGGPPRREPLPSRRDVYLSPRDDGYSTKDSYSSRDYPSSRDTRDYAPPPRDYTYRDYGHSSSRDDYPSRGYSDRDGYGRDRDYSDHPSGGSYRDSYESYGNSRSAPPTRGPPPSYGGSSRYDDYSSSRDGYGGSRDSYSSSRSDLYSSGRDRVGRQERGLPPSMERGYPPPRDSYSSSSRGAPRGGGRGGSRSDRGGGRSRY
B2: EF1A1_HUMAN (protein, UniProt P68104 2-462, looked up)
Elongation factor 1-alpha 1: GKEKTHINIVVIGHVDSGKSTTTGHLIYKCGGIDKRTIEKFEKEAAEMGKGSFKYAWVLDKLKAERERGITIDISLWKFETSKYYVTIIDAPGHRDFIKNMITGTSQADCAVLIVAAGVGEFEAGISKNGQTREHALLAYTLGVKQLIVGVNKMDSTEPPYSQKRYEEIVKEVSTYIKKIGYNPDTVAFVPISGWNGDNMLEPSANMPWFKGWKVTRKDGNASGTTLLEALDCILPPTRPTDKPLRLPLQDVYKIGGIGTVPVGRVETGVLKPGMVVTFAPVNVTTEVKSVEMHHEALSEALPGDNVGFNVKNVSVKDVRRGNVAGDSKNDPPMEAAGFTAQVIILNHPGQISAGYAPVLDCHTAHIACKFAELKEKIDRRSGKKLEDGPKFLKSGDAAIVDMVPGKPMCVESFSDYPPLGRFAVRDMRQTVAVGVIKAVDKKAAGAGKVTKSAQKAQKAK
B3: KDM4A_HUMAN (protein, UniProt O75164 2-1064, looked up)
Lysine-specific demethylase 4A: ASESETLNPSARIMTFYPTMEEFRNFSRYIAYIESQGAHRAGLAKVVPPKEWKPRASYDDIDDLVIPAPIQQLVTGQSGLFTQYNIQKKAMTVREFRKIANSDKYCTPRYSEFEELERKYWKNLTFNPPIYGADVNGTLYEKHVDEWNIGRLRTILDLVEKESGITIEGVNTPYLYFGMWKTSFAWHTEDMDLYSINYLHFGEPKSWYSVPPEHGKRLERLAKGFFPGSAQSCEAFLRHKMTLISPLMLKKYGIPFDKVTQEAGEFMITFPYGYHAGFNHGFNCAESTNFATRRWIEYGKQAVLCSCRKDMVKISMDVFVRKFQPERYKLWKAGKDNTVIDHTLPTPEAAEFLKESELPPRAGNEEECPEEDMEGVEDGEEGDLKTSLAKHRIGTKRHRVCLEIPQEVSQSELFPKEDLSSEQYEMTECPAALAPVRPTHSSVRQVEDGLTFPDYSDSTEVKFEELKNVKLEEEDEEEEQAAAALDLSVNPASVGGRLVFSGSKKKSSSSLGSGSSRDSISSDSETSEPLSCRAQGQTGVLTVHSYAKGDGRVTVGEPCTRKKGSAARSFSERELAEVADEYMFSLEENKKSKGRRQPLSKLPRHHPLVLQECVSDDETSEQLTPEEEAEETEAWAKPLSQLWQNRPPNFEAEKEFNETMAQQAPHCAVCMIFQTYHQVEFGGFNQNCGNASDLAPQKQRTKPLIPEMCFTSTGCSTDINLSTPYLEEDGTSILVSCKKCSVRVHASCYGVPPAKASEDWMCSRCSANALEEDCCLCSLRGGALQRANDDRWVHVSCAVAILEARFVNIAERSPVDVSKIPLPRFKLKCIFCKKRRKRTAGCCVQCSHGRCPTAFHVSCAQAAGVMMQPDDWPFVVFITCFRHKIPNLERAKGALQSITAGQKVISKHKNGRFYQCEVVRLTTETFYEVNFDDGSFSDNLYPEDIVSQDCLQFGPPAEGEVVQVRWTDGQVYGAKFVASHPIQMYQVEFEDGSQLVVKRDDVYTLDEELPKRVKSRLSVASDMRFNEIFTEKEVKQEKKRQRVINSRYREDYIEPALYRAIME
B4: ADT2_HUMAN (protein, UniProt P05141 1-298, looked up)
ADP/ATP translocase 2: MTDAAVSFAKDFLAGGVAAAISKTAVAPIERVKLLLQVQHASKQITADKQYKGIIDCVVRIPKEQGVLSFWRGNLANVIRYFPTQALNFAFKDKYKQIFLGGVDKRTQFWLYFAGNLASGGAAGATSLCFVYPLDFARTRLAADVGKAGAEREFRGLGDCLVKIYKSDGIKGLYQGFNVSVQGIIIYRAAYFGIYDTAKGMLPDPKNTHIVISWMIAQTVTAVAGLTSYPFDTVRRRMMMQSGRKGTDIMYTGTLDCWRKIARDEGGKAFFKGAWSNVLRGMGGAFVLVLYDEIKKYT
B5: KDM4C_HUMAN (protein, UniProt Q9H3R0 1-1056, looked up)
Lysine-specific demethylase 4C: MEVAEVESPLNPSCKIMTFRPSMEEFREFNKYLAYMESKGAHRAGLAKVIPPKEWKPRQCYDDIDNLLIPAPIQQMVTGQSGLFTQYNIQKKAMTVKEFRQLANSGKYCTPRYLDYEDLERKYWKNLTFVAPIYGADINGSIYDEGVDEWNIARLNTVLDVVEEECGISIEGVNTPYLYFGMWKTTFAWHTEDMDLYSINYLHFGEPKSWYAIPPEHGKRLERLAQGFFPSSSQGCDAFLRHKMTLISPSVLKKYGIPFDKITQEAGEFMITFPYGYHAGFNHGFNCAESTNFATVRWIDYGKVAKLCTCRKDMVKISMDIFVRKFQPDRYQLWKQGKDIYTIDHTKPTPASTPEVKAWLQRRRKVRKASRSFQCARSTSKRPKADEEEEVSDEVDGAEVPNPDSVTDDLKVSEKSEAAVKLRNTEASSEEESSASRMQVEQNLSDHIKLSGNSCLSTSVTEDIKTEDDKAYAYRSVPSISSEADDSIPLSSGYEKPEKSDPSELSWPKSPESCSSVAESNGVLTEGEESDVESHGNGLEPGEIPAVPSGERNSFKVPSIAEGENKTSKSWRHPLSRPPARSPMTLVKQQAPSDEELPEVLSIEEEVEETESWAKPLIHLWQTKSPNFAAEQEYNATVARMKPHCAICTLLMPYHKPDSSNEENDARWETKLDEVVTSEGKTKPLIPEMCFIYSEENIEYSPPNAFLEEDGTSLLISCAKCCVRVHASCYGIPSHEICDGWLCARCKRNAWTAECCLCNLRGGALKQTKNNKWAHVMCAVAVPEVRFTNVPERTQIDVGRIPLQRLKLKCIFCRHRVKRVSGACIQCSYGRCPASFHVTCAHAAGVLMEPDDWPYVVNITCFRHKVNPNVKSKACEKVISVGQTVITKHRNTRYYSCRVMAVTSQTFYEVMFDDGSFSRDTFPEDIVSRDCLKLGPPAEGEVVQVKWPDGKLYGAKYFGSNIAHMYQVEFEDGSQIAMKREDIYTLDEELPKRVKARFSTASDMRFEDTFYGADIIQGERKRQRVLSSRFKNEYVADPVYRTFLKSSFQKKCQKRQ
B6: THIO_HUMAN (protein, UniProt P10599 2-105, looked up)
Thioredoxin: VKQIESKTAFQEALDAAGDKLVVVDFSATWCGPCKMIKPFFHSLSEKYSNVIFLEVDVDDCQDVASECEVKCMPTFQFFKKGQKVGEFSGANKEKLEATINELV
B7: MPCP_HUMAN (protein, UniProt Q00325 50-362, looked up)
Solute carrier family 25 …: AVEEQYSCDYGSGRFFILCGLGGIISCGTTHTALVPLDLVKCRMQVDPQKYKGIFNGFSVTLKEDGVRGLAKGWAPTFLGYSMQGLCKFGFYEVFKVLYSNMLGEENTYLWRTSLYLAASASAEFFADIALAPMEAAKVRIQTQPGYANTLRDAAPKMYKEEGLKAFYKGVAPLWMRQIPYTMMKFACFERTVEALYKFVVPKPRSECSKPEQLVVTFVAGYIAGVFCAIVSHPADSVVSVLNKEKGSSASLVLKRLGFKGVWKGLFARIIMIGTLTALQWFIYDSVKVYFRLPRPPPPEMPESLKKKLGLTQ
B8: CPSF1_HUMAN (protein, UniProt Q10570 1-1443, looked up)
Cleavage and polyadenylation …: MYAVYKQAHPPTGLEFSMYCNFFNNSERNLVVAGTSQLYVYRLNRDAEALTKNDRSTEGKAHREKLELAASFSFFGNVMSMASVQLAGAKRDALLLSFKDAKLSVVEYDPGTHDLKTLSLHYFEEPELRDGFVQNVHTPRVRVDPDGRCAAMLVYGTRLVVLPFRRESLAEEHEGLVGEGQRSSFLPSYIIDVRALDEKLLNIIDLQFLHGYYEPTLLILFEPNQTWPGRVAVRQDTCSIVAISLNITQKVHPVIWSLTSLPFDCTQALAVPKPIGGVVVFAVNSLLYLNQSVPPYGVALNSLTTGTTAFPLRTQEGVRITLDCAQATFISYDKMVISLKGGEIYVLTLITDGMRSVRAFHFDKAAASVLTTSMVTMEPGYLFLGSRLGNSLLLKYTEKLQEPPASAVREAADKEEPPSKKKRVDATAGWSAAGKSVPQDEVDEIEVYGSEAQSGTQLATYSFEVCDSILNIGPCANAAVGEPAFLSEEFQNSPEPDLEIVVCSGHGKNGALSVLQKSIRPQVVTTFELPGCYDMWTVIAPVRKEEEDNPKGEGTEQEPSTTPEADDDGRRHGFLILSREDSTMILQTGQEIMELDTSGFATQGPTVFAGNIGDNRYIVQVSPLGIRLLEGVNQLHFIPVDLGAPIVQCAVADPYVVIMSAEGHVTMFLLKSDSYGGRHHRLALHKPPLHHQSKVITLCLYRDLSGMFTTESRLGGARDELGGRSGPEAEGLGSETSPTVDDEEEMLYGDSGSLFSPSKEEARRSSQPPADRDPAPFRAEPTHWCLLVRENGTMEIYQLPDWRLVFLVKNFPVGQRVLVDSSFGQPTTQGEARREEATRQGELPLVKEVLLVALGSRQSRPYLLVHVDQELLIYEAFPHDSQLGQGNLKVRFKKVPHNINFREKKPKPSKKKAEGGGAEEGAGARGRVARFRYFEDIYGYSGVFICGPSPHWLLVTGRGALRLHPMAIDGPVDSFAPFHNVNCPRGFLYFNRQGELRISVLPAYLSYDAPWPVRKIPLRCTAHYVAYHVESKVYAVATSTNTPCARIPRMTGEEKEFETIERDERYIHPQQEAFSIQLISPVSWEAIPNARIELQEWEHVTCMKTVSLRSEETVSGLKGYVAAGTCLMQGEEVTCRGRILIMDVIEVVPEPGQPLTKNKFKVLYEKEQKGPVTALCHCNGHLVSAIGQKIFLWSLRASELTGMAFIDTQLYIHQMISVKNFILAADVMKSISLLRYQEESKTLSLVSRDAKPLEVYSVDFMVDNAQLGFLVSDRDRNLMVYMYLPEAKESFGGMRLLRRADFHVGAHVNTFWRTPCRGATEGLSKKSVVWENKHITWFATLDGGIGLLLPMQEKTYRRLLMLQNALTTMLPHHAGLNPRAFRMLHVDRRTLQNAVRNVLDGELLNRYLYLSTMERSELAKKIGTTPDIILDDLLETDRVTAHF

system: KDM4A-I71AzF; experiment: CASI: photo-crosslinking with HEK293T cell extracts, StrepTactin enrichment and LC-MS/MS proteomics; type: binding, human; settings: sheet "Final results but with 0.01";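 further: lysates from HEK293T cells pretreated with a KDM4 inhibitor to raise proteome methylation, affinity-purified after ±UV, gel-resolved, trypsin-digested, with exclusive unique peptides per protein averaged per condition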

Molecule | Fold change (+UV/-UV)
B1 | 200
B2 | 0.9444
B3 | 1.184
B4 | 0.8333
B5 | 1.333
B6 | 0.5
B7 | 1
B8 | 0.6923
